Assay [1] concerns the target recombinant Plasmodium falciparum Hsp70-1 (PfHsp70-1), full length (Plasmodium falciparum). In words: SPR; ProteOn XPR36, ligand amine-coupled to GLC chip, analyte 125-2000 nM at 50 μl/min, PBS-Tween with 20 mM EDTA pH 7.4, 25 °C, Langmuir fit; with 5 mM ATP. A general note: Surface plasmon resonance follows binding to a sensor surface in real time, without labels.
Assay [2] has the same target. In words: SPR; ProteOn XPR36, ligand amine-coupled to GLC chip, analyte 125-2000 nM at 50 μl/min, PBS-Tween with 20 mM EDTA pH 7.4, 25 °C, Langmuir fit; no nucleotide.
Assay [3] shares this target. The experiment in a line: SPR; ProteOn XPR36, ligand amine-coupled to GLC chip, analyte 125-2000 nM at 50 μl/min, PBS-Tween with 20 mM EDTA pH 7.4, 25 °C, Langmuir fit; with 5 mM ADP.

For orientation: Kd means the free concentration of one partner at which half of the binding sites on the other are occupied at equilibrium, for simple one-to-one binding. By koff is commonly meant the first-order rate constant of dissociation. The term kon denotes the rate constant with which the complex forms. In the case of “recombinant Plasmodium falciparum Hsp70-z (PfHsp70-z) (natural protein)”, in assay [1], the dissociation constant Kd was found to be 0.0241 µM, the koff came to 2.42e-05 s⁻¹ and the on-rate constant (kon) was 997 M⁻¹ s⁻¹. Besides, in assay [2], the Kd came to 59.8 µM, the koff amounted to 2.96e-05 s⁻¹ and the kon is 0.495 M⁻¹ s⁻¹. Also, in assay [3], the Kd was determined as 12.1 µM, the dissociation rate constant (koff) came to 3.61e-05 s⁻¹ and the association rate constant (kon) was determined as 298 M⁻¹ s⁻¹.
